# Data published in US20050049403A1 (CAMBRIDGE ANTIBODY TECHNOLOGY, published 2005).
# B1: 6H1 IgG4 (antibody, V domains shown)
# VH: EVQLVESGGGVVQPGRSLRLSCAASGFTFSSYGMHWVRQAPGKGLEWVAVIWYDGSNKYYADSVKGRFTISRDNSKNTLYLQMDSLRAEDTAVYYCGRTLESSLWGQGTLVTVSS
# VL: DVVMTQSPSSLSASVGDRVTITCRASQGISNYLAWYQQKPGKAPKLLIYKASTLESGVPSRFSGSGSGTEFTLTISSLQPEDFATYYCQQSYSTPRTFGQGTKVDIKR
# notes: Whole antibody: human gamma 4 and human kappa constant regions (pG4D100, pKN100), CHO cells
# B2: 6A5 IgG4 (antibody, V domains shown)
# VH: B1 VH
# VL: SSELTQDPAVSVALGQTVRITCQGDSLRSYYASWYQQKPGQAPVLVIYGKNNRPSGIPDRFAGSNSGNTASLTITGAQAEDEADYYCSSRDSSGNHVVFGGGTKLTVLG
# notes: Whole antibody: human gamma 4 and human lambda constant regions (pG4D100, pLN10), CHO cells
# B3: 10A6 scFv (scFv)
# scFv: QVQLVESGGGVVQPGRSLRLSCAASGFTFSSYGMHWVRQAPGKGLEWVAVISYDGSNKYYADSVKGRFTISRDNSKNTLYLQMNSLRAEDTAVYYCAKTGEYSGYDSSGVDVWGKGTTVTVSSGGGGSGGGGSGGGGSHVILTQDPAVSVALGQTVRITCQGDSLKSYYASWYQQKPGQAPVLVIYGENSRPSGIPDRFSGSSSGNTASLTITGAQAEDEADYYCNSRDSSGTHLEVFGGGTKLTVLG
# notes: Light chain shuffle of 1-B2
# B4: 27C1/10A6 IgG4 (antibody, V domains shown)
# VH: QVQLVESGGGVVQPGRSLRLSCAASGLTFSSYDMHWVRQPPAKGLEWVAVISYDGSSKYYADSVKGRFTISRDNSKNTLYLQMNSLRAEDTAVYYCARTGEYSGYDTSGVELWGQGTTVTVSS
# VL: HVILTQDPAVSVALGQTVRITCQGDSLKSYYASWYQQKPGQAPVLVIYGENSRPSGIPDRFSGSSSGNTASLTITGAQAEDEADYYCNSRDSSGTHLEVFGGGTKLTVLG
# notes: Whole antibody: human gamma 4 constant region (pG4D100) and human lambda constant region (pLN10), made in CHO cells
# Tests used:
# recombinant human TGFβ2 [1] = biological target: T1, recombinant human TGFβ2 (human, UniProt P61812 303-414); test: cell-based or functional assay
# T1 sequence (looked up): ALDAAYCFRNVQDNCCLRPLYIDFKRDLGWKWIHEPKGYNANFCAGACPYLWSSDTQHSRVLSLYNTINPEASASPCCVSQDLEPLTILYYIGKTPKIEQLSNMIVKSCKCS
# TGFβ3 [2] = biological target: T2, TGFβ3 (UniProt P10600 301-412); test: cell-based or functional assay
# T2 sequence (looked up): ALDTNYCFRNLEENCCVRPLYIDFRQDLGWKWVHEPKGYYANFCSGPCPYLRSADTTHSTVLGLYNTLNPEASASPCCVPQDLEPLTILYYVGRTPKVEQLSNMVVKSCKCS
# recombinant human TGFβ1 [3] = biological target: T3, recombinant human TGFβ1 (human, UniProt P01137 279-390); test: cell-based or functional assay
# T3 sequence (P01137 279-390 limits assumed): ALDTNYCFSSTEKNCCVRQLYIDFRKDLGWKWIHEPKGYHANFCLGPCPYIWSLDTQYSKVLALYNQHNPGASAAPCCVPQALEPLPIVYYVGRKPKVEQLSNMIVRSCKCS
# recombinant human TGFβ1 [4] = biological target: T3, recombinant human TGFβ1; test: A549 cell radioreceptor assay (nM IgG)
# TGFβ3 [5] = biological target: T2, TGFβ3; test: A549 cell radioreceptor assay (nM IgG)
# recombinant human TGFβ2 [6] = biological target: T1, recombinant human TGFβ2; test: A549 cell radioreceptor assay (nM IgG)
# Procedure: (§1) Aliqouts of ¹²⁵I-TGFβ1 or TGFβ2 (70-90 TBq/mmol; Amersham International) at 20 pM are preincubated with antibody in binding medium at room temperature for 1 h. Duplicate samples of 0.5 ml of TGFβ/antibody mixtures are then added to the cell monlayers and are incubated at 37° C. for 1-2 h. Control wells contain TGFβ only. Unbound TGFβ is removed by washing 4 times with Hank's balanced salt solution containing 0.1% BSA. Cells are solubilised in 0.8 ml 25 mM Tris HCl pH 7.5, 10% glycerol, 1% Triton X-100 at room temperature for 20 min. The contents of each well are removed and ¹²⁵I measured in a gamma counter.
# The ability of 6B1 IgG4 to inhibit binding of TGFβ isoforms to receptors was measured in a radioreceptor assay as described in example 4.
# recombinant human TGFβ2 [7] = biological target: T1, recombinant human TGFβ2; test: cell-based or functional assay; remark: listed apart in the source
# recombinant human TGFβ2 [8] = biological target: T1, recombinant human TGFβ2; test: cell-based or functional assay; remark: listed apart in the source
# recombinant human TGFβ2 [9] = biological target: T1, recombinant human TGFβ2; test: BIACore, method of Karlsson et al.
# recombinant human TGFβ1 [10] = biological target: T3, recombinant human TGFβ1; test: BIACore, antigen coated on the sensor chip
# TGFβ3 [11] = biological target: T2, TGFβ3; test: BIACore, antigen coated on the sensor chip
# recombinant human TGFβ2 [12] = biological target: T1, recombinant human TGFβ2; test: radioreceptor assay, inhibition of 125I-TGFβ2 binding to A549 cells; concentration of antibody combining sites
# Procedure: (§2) Cells are seeded at 1-2×10^5 cells/ml/well into the wells of 24-well cluster plates and grown for 24 h in serum-free DMEM. Cell monlayers are washed twice with serum-free DMEM and 0.5 ml binding medium (DMEM/Hams F12 (Sigma D-6421) containing 0.1% (v/v) BSA added to each well.
# as §1
# human lymphotoxin (TNFβ) = biological target: T4, human lymphotoxin (TNFβ) (human, UniProt P01374 35-205, limits assumed); test: ELISA, antigen coated at 10 µg/ml, anti-human Fc alkaline phosphatase conjugate, OD405 nm [b]
# T4 sequence (looked up): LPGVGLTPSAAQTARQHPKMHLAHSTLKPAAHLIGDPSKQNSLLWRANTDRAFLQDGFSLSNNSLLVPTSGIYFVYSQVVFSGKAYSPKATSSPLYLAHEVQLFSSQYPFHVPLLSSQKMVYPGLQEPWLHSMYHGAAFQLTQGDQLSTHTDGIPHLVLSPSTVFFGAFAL
# Procedure: (§3) For both FIG. 13(a) and FIG. 13(b), antigens 1 to 15 were used for coating the plate at a concentration of 10 μg/ml in PBS. The TGFbetas were coated at 0.2 μg/ml in PBS. Coating was performed at 4° C. overnight. […] of each antigen was used per well and duplicates of each antigen for each IgG to be tested. IgG samples were incubated with the coated antigens at 37° C. for 2 hours after blocking with 2%. marvel-PBS. The labelled second antibody was a mouse anti-human Fc1 alkaline phosphatase conjugated and the substrate used to detect bound second antibody was PNPP at 1 mg/ml with the absorbance read at 405 nm.
# human insulin = human insulin (human, UniProt P01308 25-54; P01308 90-110, limits assumed); test: as above
# human insulin, sequence (P01308 25-54 limits assumed, chain 1 of 2): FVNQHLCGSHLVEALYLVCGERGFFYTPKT
# human insulin, sequence (P01308 90-110 limits assumed, chain 2 of 2): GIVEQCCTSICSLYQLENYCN
# Procedure: as §3
# human serum albumin = human serum albumin (human, UniProt P02768 25-609); test: as above
# human serum albumin, sequence (P02768 25-609 limits assumed): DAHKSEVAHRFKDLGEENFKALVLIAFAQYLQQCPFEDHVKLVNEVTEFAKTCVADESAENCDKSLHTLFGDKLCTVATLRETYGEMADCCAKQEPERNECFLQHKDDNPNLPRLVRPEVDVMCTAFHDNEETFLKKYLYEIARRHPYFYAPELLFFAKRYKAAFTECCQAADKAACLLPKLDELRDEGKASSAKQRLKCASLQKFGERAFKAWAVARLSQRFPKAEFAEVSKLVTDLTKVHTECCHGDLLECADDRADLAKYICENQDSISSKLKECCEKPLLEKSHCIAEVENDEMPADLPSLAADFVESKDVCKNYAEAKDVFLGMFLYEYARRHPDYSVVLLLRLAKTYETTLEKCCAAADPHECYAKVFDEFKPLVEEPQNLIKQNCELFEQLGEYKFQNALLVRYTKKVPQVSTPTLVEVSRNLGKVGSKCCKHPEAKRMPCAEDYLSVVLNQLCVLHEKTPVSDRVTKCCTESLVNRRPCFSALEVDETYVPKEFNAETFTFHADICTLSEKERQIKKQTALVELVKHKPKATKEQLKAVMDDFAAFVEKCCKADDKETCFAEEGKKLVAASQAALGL
# Procedure: as §3
# [13] = biological target: oxazolone-bovine serum albumin (bovine, UniProt P02769 25-607, oxazolone hapten coupled, sites not stated); test: as above
# oxazolone-bovine serum albumin, sequence (P02769 25-607 limits assumed): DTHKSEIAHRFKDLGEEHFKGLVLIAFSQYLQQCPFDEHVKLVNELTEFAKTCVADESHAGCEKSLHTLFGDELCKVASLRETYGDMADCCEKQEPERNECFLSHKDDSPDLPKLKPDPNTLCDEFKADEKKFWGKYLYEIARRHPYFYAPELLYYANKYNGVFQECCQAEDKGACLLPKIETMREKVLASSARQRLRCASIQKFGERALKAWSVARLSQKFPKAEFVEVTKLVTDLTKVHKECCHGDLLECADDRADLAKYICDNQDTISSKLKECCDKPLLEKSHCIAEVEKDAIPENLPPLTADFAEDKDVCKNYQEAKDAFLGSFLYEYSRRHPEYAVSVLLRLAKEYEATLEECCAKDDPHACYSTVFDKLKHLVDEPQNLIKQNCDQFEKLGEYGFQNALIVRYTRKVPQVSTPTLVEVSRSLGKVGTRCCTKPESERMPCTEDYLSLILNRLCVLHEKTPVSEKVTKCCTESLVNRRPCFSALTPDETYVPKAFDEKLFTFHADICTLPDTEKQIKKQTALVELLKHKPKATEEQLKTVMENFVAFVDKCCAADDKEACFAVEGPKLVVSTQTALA
# Procedure: as §3
# [14] = biological target: T5, chicken egg white trypsin inhibitor (chicken, UniProt P01005 25-210); test: as above
# T5 sequence (looked up): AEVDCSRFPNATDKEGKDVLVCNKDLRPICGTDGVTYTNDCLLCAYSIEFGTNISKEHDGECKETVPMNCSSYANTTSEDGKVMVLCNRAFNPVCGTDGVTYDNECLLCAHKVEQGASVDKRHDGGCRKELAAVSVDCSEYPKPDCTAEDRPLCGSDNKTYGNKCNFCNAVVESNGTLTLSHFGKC
# Procedure: as §3
# ovalbumin = biological target: T6, ovalbumin (UniProt P01012 2-386); test: as above
# T6 sequence (looked up): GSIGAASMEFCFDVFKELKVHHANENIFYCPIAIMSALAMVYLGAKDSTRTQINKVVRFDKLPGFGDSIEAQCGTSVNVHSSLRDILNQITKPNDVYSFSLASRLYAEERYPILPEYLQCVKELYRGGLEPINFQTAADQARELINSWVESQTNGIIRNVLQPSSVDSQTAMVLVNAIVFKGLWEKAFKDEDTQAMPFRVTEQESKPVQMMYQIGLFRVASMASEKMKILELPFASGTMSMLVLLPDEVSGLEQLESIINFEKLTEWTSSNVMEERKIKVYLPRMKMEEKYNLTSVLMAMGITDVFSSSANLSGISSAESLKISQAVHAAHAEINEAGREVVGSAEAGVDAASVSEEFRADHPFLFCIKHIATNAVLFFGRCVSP
# Procedure: as §3
# hen egg lysozyme = hen egg lysozyme (hen, UniProt P00698 19-147); test: as above
# hen egg lysozyme, sequence (P00698 19-147): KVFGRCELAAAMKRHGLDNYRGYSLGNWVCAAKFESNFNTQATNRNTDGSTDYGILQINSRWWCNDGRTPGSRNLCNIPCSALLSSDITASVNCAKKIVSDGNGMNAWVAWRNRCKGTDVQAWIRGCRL
# Procedure: as §3
# bovine serum albumin = biological target: T7, bovine serum albumin (bovine, UniProt P02769 25-607); test: as above
# T7 construct: also called BSA
# T7 sequence (P02769 25-607 limits assumed): as the sequence (P02769 25-607 limits assumed) above
# Procedure: as §3
# recombinant human TGFβ1 [15] = biological target: T3, recombinant human TGFβ1; test: specificity ELISA, TGFβ coated at 0.2 µg/ml
# Procedure: Clones identified as binding TGFβ-1 rather an uncoated well, as described above, were further analysed for fine specificity. […] Microtitre plate wells were coated with 50 μl of either 0.2 μg/ml TGFβ1, 0.2 μg/ml TGFβ-2, 10 μg/ml bovine serum albumin (BSA) or PBS (the uncoated well). After preblocking both the phage (or soluble scFv) and the microtitre plates, 50 μl blocked phage (or soluble scFv) from each clone was added to a well coated with either TGFβ-1, TGFβ-2, BSA or an uncoated well. As above, alkaline phosphatse activity was visualised using either the chromagenic substrate pNPP (Sigma) or the Ampak system (Dako). […]
# recombinant human TGFβ2 [16] = biological target: T1, recombinant human TGFβ2; test: BIACore, antigen on the chip
# recombinant human TGFβ1 [17] = biological target: T3, recombinant human TGFβ1; test: BIACore, method of Karlsson et al.
# [18] = biological target: lysozyme (coated onto a BIACore sensor chip) (Gallus gallus (Chicken), UniProt P00698 19-147); test: BIACore, lysozyme coated on the sensor chip
# lysozyme (coated onto a BIACore sensor chip), sequence (P00698 19-147 limits assumed): as the sequence (P00698 19-147) above
# recombinant human TGFβ1 [19] = biological target: T3, recombinant human TGFβ1; test: radioreceptor assay, inhibition of 125I-TGFβ1 binding to A549 cells; concentration of antibody combining sites
# Procedure: as §2, §1
molecule,measurement,setting,value
"Mouse anti-TGFβ1,2,3 monoclonal antibody from Genzyme",TF1 cell proliferation assay IC50 (nM IgG),recombinant human TGFβ2 [1],10 nM
same,TF1 cell proliferation assay IC50 (nM IgG),TGFβ3 [2],0.1 nM
same,TF1 cell proliferation assay IC50 (nM IgG),recombinant human TGFβ1 [3],1.5 nM
same,IC50,recombinant human TGFβ1 [4],0.55 nM
same,IC50,TGFβ3 [5],0.03 nM
same,IC50,recombinant human TGFβ2 [6],0.5 nM
B1,"IC50 in TF1 cell proliferation assay, 100 pM TGFβ isoform",recombinant human TGFβ2 [7],12 nM
same,"IC50 in TF1 neutralisation assay, 6H1 IgG4 from a CHO cell line",recombinant human TGFβ2 [7],15 nM
same,"IC50 in TF1 cell proliferation assay, 100 pM TGFβ isoform",TGFβ3 [2],~20 nM
same,I.C.50 in TF1 assay (neutralisation of TGFβ2 inhibition of TF1 cell proliferation),recombinant human TGFβ2 [8],100 nM
same,Kd,recombinant human TGFβ2 [9],~2 nM
same,binding result,recombinant human TGFβ1 [10],no binding
same,binding result,TGFβ3 [11],no binding
same,IC50,recombinant human TGFβ2 [12],~10 nM
B2,I.C.50 in TF1 assay (neutralisation of TGFβ2 inhibition of TF1 cell proliferation),recombinant human TGFβ2 [8],150 nM
same,binding result,human lymphotoxin (TNFβ),no binding
same,binding result,human insulin,no binding
same,binding result,human serum albumin,no binding
same,binding result,[13],no binding
same,binding result,[14],no binding
same,binding result,ovalbumin,no binding
same,binding result,hen egg lysozyme,no binding
same,binding result,bovine serum albumin,no binding
same,IC50,recombinant human TGFβ2 [12],~6 nM
B3,"ELISA signal, fold over the signal on TGFβ2 and TGFβ3",recombinant human TGFβ1 [15],≥ 5 fold
B4,fold higher dissociation constant compared to TGFβ1,recombinant human TGFβ2 [16],≥ 10 fold
same,Kd,recombinant human TGFβ1 [17],~5 nM
same,binding result,[18],no binding
same,IC50,recombinant human TGFβ1 [19],9 nM
